The target in this test is α-synuclein (recombinant, monomeric fraction) (UniProt P37840 1-140). Description: fluorescence anisotropy; α-syn monomers titrated into the Trp-containing peptide. As to the method: The solution was immediately mixed with α-syn monomer stock solution to varying final concentrations. The peptide polarization measurements were carried out using an ISS K2 fluorometer. The solutions were excited at 280 nm and emission was monitored at 350 nm. For each single point, at least five measurements were collected and their average values were used for the calculation. All experiments were performed using ultra pure water.
For orientation: In fluorescence polarisation assays a small probe gives low polarisation when free and higher when bound to something large.

B1: β-syn 36 in which tyrosine was substituted with tryptophan (peptide)
peptide: GVLWVGSKTR
notes: also called β-syn 36 containing Tryptophan instead of Tyrosine
For the molecule B1, the Kd (as a rule, the free concentration of one partner at which half of the binding sites on the other are occupied at equilibrium, for simple one-to-one binding) is around 1000 nM.

These data come from US20160168212A1 (RAMOT AT TEL AVIV UNIVERSITY, published 2016).
